One series is described as follows: physchem. Type of series: physicochemical. The following applies: buffer, pH 7.4. The text has this:
Initially, the D200 mutants were examined as potential glycosynthases using two types of activated fucosyl donors with opposite anomeric configuration as substrates. For nucleophile mutant such as D200G, a fucosyl fluoride with reversed anomeric configuration, β-fucosyl fluoride or β-fucosyl azide, should be applied to mimic the enzyme-substrate intermediate^52,53,67. However, β-glycosyl fluorides are quite unstable and are subjected to spontaneous hydrolysis in aq. solutions^42. Indeed, most successful glycosynthases have been derived so far from retaining β-glycosidases that take the α-glycosyl fluoride as donor substrate. […] Thus, the potential glycosylation activity of the nucleophilic mutants, including D200G, D200S, D200A, and D200S, were tested using both the β-glycosyl azide (1) and the β-glycosyl fluoride (2) as the donor substrates and the Fmoc-Asn(GlcNAc)-OH (4)^69 as the acceptor substrate (FIG. 3). The reactions were run with different amounts of enzymes and were monitored by reverse-phase HPLC analysis.

For series [1] the following is noted: buffer; cited from earlier work.
The target in series [2] is T1, Aleuria aurantia lectin (AAL) (Aleuria aurantia, UniProt P18891).
T1 sequence (P18891 1-313): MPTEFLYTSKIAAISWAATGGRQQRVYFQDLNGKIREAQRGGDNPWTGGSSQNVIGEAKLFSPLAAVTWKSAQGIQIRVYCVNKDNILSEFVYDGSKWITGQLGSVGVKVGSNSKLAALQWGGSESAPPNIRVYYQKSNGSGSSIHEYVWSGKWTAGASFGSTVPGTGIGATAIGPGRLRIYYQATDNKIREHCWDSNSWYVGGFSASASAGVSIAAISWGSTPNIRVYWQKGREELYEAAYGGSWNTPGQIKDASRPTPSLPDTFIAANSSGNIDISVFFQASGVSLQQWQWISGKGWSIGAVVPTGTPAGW
Kind of series: ELISA analysis of binding between lectin AAL and glycoproteins or released N-glycans. The following applies: for AAL binding: glycoprotein coated on plate; for EC50: glycoprotein coated on plate (10 μg/ml), AAL-biotin serial dilution. The text has this:
FIG. 9 ELISA analysis of the binding between lectin AAL and glycoproteins or released N-glycans. The glycoproteins or released N-glycans (tagged with Fmoc) were immobilized on the plates and probed by serial dilutions of the lectin. A) AAL binding with RNase B (20) and fucosylated RNase B (21); B) AAL binding with non-fucosylated glycoform of rituximab (28) and fucosylated rituximab glycoform (30); C) AAL binding with the PNGase F released high-mannose N-glycans released from 20 and 21; D) ALL binding with the PNGase F released complex type N-glycans from 28 and 30.
The glycoprotein (20, 21, 28 or 30) (10 μg/ml) in a phosphate buffer (pH 7.5) was coated onto a 96-well plate (UltraCruz®) at 4° C. for overnight. After wash twice, 2% bovine serum albumin in PBS containing Tween® 20 (PBST buffer) was added to block the plate for 2 h. Subsequently, after washed twice again, a serial dilution of AAL-biotin ranging from 0.1 μM to 1000 μM in PBST buffer was added and the plate was incubated for 1 h. After washing, peroxidase streptavidin (2 μg/mL) (Jackson ImmunoResearch Inc.) was added and incubated for 1 h. Finally, 100 μL of substrate, 3, 3′, 5, 5′-tetramethylbenzidine was added for signal development. The reaction was stopped by the adding 100 μL of 20% sulfuric acid (v/v). The absorbance at 450 nm was measured using SpectraMax M5 microplate reader (Molecular Devices). For the binding of the N-glycans, the Fmoc-labeled N-glycans released from 20, 21, 28 and 30 (1 μg/ml) were coated on the plate and the ELISA analysis was performed in the same manner as that of the glycoproteins.

Series [3] is described as follows: Glycoligase (transfucosylation) activity on acceptor 4, pH and temperature profiles. Format: biochemical. The following applies: donor 3, acceptor 4, pH 7.5, 42° C. On the procedure: A) pH profile; B) temperature profile of its catalysis. […] The transglycosylation product was quantitated by HPLC analysis. To investigate temperature profile of AlfC α-fucosidase in transglycosylation reaction, a mixture of donor sugar 3 (20 mM), acceptor sugar (4) (10 mM) and enzyme AlfC E274G (0.2 mg/mL) was incubated in a PBS buffer (0.1 M, pH7.5) containing 5% DMSO. The reactions were carried out for 20 min at various temperatures, including 25° C., 30° C., 35° C., 40° C., 45° C., 50° C. and 55° C. The transglycosylation product was quantitated by HPLC analysis.
Next, the potential glyco-ligase activity was tested of the general acid/base residue mutants using the α-fucosyl fluoride (3) as the donor substrate (FIG. 3).

Series [4] is described as follows: Hydrolysis of α-fucosyl fluoride in the absence of the GlcNAc acceptor. Type of series: biochemical.
Series [5] is described as follows: Transglycosylation kinetics of AlfC α-fucosidase mutants. The following applies: apparent; donor sugar 0.2 to 2.0 mM, acceptor 2.0 mM, sodium phosphate 0.1M pH 7.5, 42° C. Type of series: biochemical. On the procedure: The kinetic studies on transglycosylation were carried out at 42° C. in sodium phosphate (0.1 M, pH 7.5). The transglycosylation product was detected and quantitated by HPLC analysis. The concentration of the donor substrates (1-3) was varied from 0.2 to 2.0 mM, while that of the acceptor (4) was fixed (2 mM). KM and kcat values (strictly, apparent KM and kcat, as they were determined at a fixed, nonsaturating, co-substrate concentration) were determined by fitting the initial velocity curves to the Michaelis-Menten equation by nonlinear regression in GraFit.

The subject of the next series is rituximab. Kind of series: Defucosylation of rituximab by wild-type AlfC α-fucosidase. Type of series: biochemical. An excerpt: The potent transfucosylation activity of AlfC α-fucoligase towards glycopeptides and glycoproteins prompted further exploring of its application for glycoengineering of therapeutic monoclonal antibodies. Core fucosylation of the Fc domain N-glycans plays a pivotal role in modulating the functions of antibodies and their therapeutic efficacy^8,74. It was previously developed by the current inventors a chemoenzymatic Fc glycan remodeling method that consists of deglycosylation and glycosynthase-catalyzed glycan transfer to produce homogeneous Fc glycoforms^65,66,75. If the fucoligase mutant could act on intact antibody, then it would further expand the repertoire of the toolbox for antibody Fc glycan engineering. To test this possibility, rituximab (26) was selected as a model system. First, rituximab was deglycosylated with Endo-S followed by defucosylation with the wild type AlfC α-fucosidase to give the GlcNAc-rituximab (27) (FIG. 7). […] The non-fucosylated complex type glycoform (28) of rituximab was synthesized by the EndoS-D233Q catalyzed glycosylation with glycan oxazoline (24) as the donor, following previously published procedure^75. These two glycoforms (27 and 28) were used as potential substrates for examining the AlfC fucoligase mutants. […] The product was readily isolated by protein A affinity chromatography. To confirm the identity of the Fucα1,6GlcNAc-rituximab (29), the product was treated with protease IdeS which specifically hydrolyzes IgG antibody to release the monomeric Fc domain, and the released Fc was analyzed by ESI-MS. […] As described previously, Fucα1,6GlcNAc-rituximab (29) was an excellent substrate for EndoS-D233Q^75. Indeed, incubation of 29 with EndoS-D233Q and glycan oxazoline (24) gave the expected core-fucosylated complex type glycoform of rituximab (30) in excellent yield, further confirming that the 29 was the expected Fucα1,6GlcNAc-rituximab.
Finally, the direct fucosylation of the intact rituximab (28) was tested carrying the full size complex type Fc N-glycans. […]

These results are taken from US11193155B2, “Designer α 6-fucosidase mutants enable direct core fucosylation of intact N-glycopeptides and N-glycoproteins” (UNIVERSITY OF MARYLAND, COLLEGE PARK, priority 2016, dated 2021).

In the case of `C[C@@H]1O[C@H](F)[C@@H](F)[C@H](O)[C@@H]1O` [compound 2, 2-deoxy-2-fluoro-β-fucosyl fluoride], in “physchem”, the half-life was 6 h.

As for `C[C@@H]1O[C@H](F)[C@@H](O)[C@H](O)[C@@H]1O` [β-fucosyl fluoride], the “half-life (spontaneous hydrolysis)” value in series [1] is recorded as “ca. 20 min”.

“30: core-fucosylated complex type glycoform of rituximab [compound 30]”: in series [2], the AAL binding entry is “specific recognition” and the EC50 amounted to 15 µM. Moreover, the “affinity for AAL relative to core-fucosylated RNase B (21)” value in series [2] (glycoproteins) is recorded as “about 17 fold”.

Consider “28: non-fucosylated complex type glycoform of rituximab [compound 28]”, for which, in series [2], the AAL binding result is given as “did not show any detectable affinity”.

B1: 21: core-fucosylated RNase B glycoforms carrying core fucosylated high-mannose glycans (protein, UniProt P61823 27-150, looked up)
Ribonuclease pancreatic: KETAAAKFERQHMDSSTSAASSSNYCNQMMKSRNLTKDRCKPVNTFVHESLADVQAVCSQKNVACKNGQTNCYQSYSTMSITDCRETGSSKYPNCAYKTTQANKHIIVACEGNPYVPVHFDASV
modifications: core-fucosylated high-mannose glycans
For B1, in series [2], the AAL binding result is listed as “specific binding” and the EC50 worked out at 275 µM.

B2: 20: bovine ribonuclease B, natural glycoprotein with heterogeneous high-mannose type N-glycan (protein)
chain: KETAAAKFERQHMDSSTSAASSSNYCNQMMKSRNLTKDRCKPVNTFVHESLADVQAVCSQKNVACKNGQTNCYQSYSTMSITDCRETGSSKYPNCAYKTTQANKHIIVACEGNPYVPVHFDASV
Turning to B2, in series [2], the AAL binding result is reported as “didn't show any binding”.

B3: E274G: Lactobacillus casei α1,6-fucosidase (AlfC) mutant at general acid/base residue E274 (protein)
chain: MNDNVAWFKQAKYGMMIHWGLYSLLAGEYRGESSSAYAEWIQSKFQIPNAEYGNLATAFNPLYFDAKKIVALAKQCGMQYLVVTTKHHDGFAMYHSKVDAYNVYDATPFHRDIIGELAEACQKAGLKFGLYYSQDLDWHDPNGGGYKSNDVETAGTTWDNSWDFPDEDQKNFDLCFDNKILPQIKEIMSNYGDIATAWFDVPMTLSEAQSQTIYDTVRELQPNCLINSRLGNGKYDFVSLGDNEIPKNKEDMNKTDVDYNEITGFKPSPLGLYGTAGTINDSWGFSYHDQNWKTPRTLYRYKQHLNDFGINYLLNVGLDPLGRVPMMAEENLLAAKALEDEANRL
On to B3, for which the “catalytic activity to transfer fucose to GlcNAc of acceptor 4” value in series [3] was “excellent catalysts for fucosylation”. In addition, the “hydrolysis of α-fucosyl fluoride” value in series [4] was “only hydrolyzed α-fucosyl fluoride slowly”. Also, in series [5], the Km came out at 250 ± 30 µM and the kcat was 1.38 ± 0.15 × 10^2 min^−1.

B4: E274S: Lactobacillus casei α1,6-fucosidase (AlfC) mutant at general acid/base residue E274 (protein)
chain: MNDNVAWFKQAKYGMMIHWGLYSLLAGEYRGESSSAYAEWIQSKFQIPNAEYGNLATAFNPLYFDAKKIVALAKQCGMQYLVVTTKHHDGFAMYHSKVDAYNVYDATPFHRDIIGELAEACQKAGLKFGLYYSQDLDWHDPNGGGYKSNDVETAGTTWDNSWDFPDEDQKNFDLCFDNKILPQIKEIMSNYGDIATAWFDVPMTLSEAQSQTIYDTVRELQPNCLINSRLGNGKYDFVSLGDNEIPKNKEDMNKTDVDYNEITGFKPSPLGLYSTAGTINDSWGFSYHDQNWKTPRTLYRYKQHLNDFGINYLLNVGLDPLGRVPMMAEENLLAAKALEDEANRL
As for B4, in series [3], the “catalytic activity to transfer fucose to GlcNAc of acceptor 4” value was “excellent catalysts for fucosylation”. In addition, the “hydrolysis of α-fucosyl fluoride” value in series [4] was “only hydrolyzed α-fucosyl fluoride slowly”. Moreover, in series [5], the Km came to 260 ± 30 µM and the kcat is listed as 2.42 ± 0.14 × 10^2 min^−1.

B5: wild type AlfC: α1,6-fucosidase from Lactobacillus casei (AlfC), wild type (protein, listed as Lactobacillus casei)
chain: MNDNVAWFKQAKYGMMIHWGLYSLLAGEYRGESSSAYAEWIQSKFQIPNAEYGNLATAFNPLYFDAKKIVALAKQCGMQYLVVTTKHHDGFAMYHSKVDAYNVYDATPFHRDIIGELAEACQKAGLKFGLYYSQDLDWHDPNGGGYKSNDVETAGTTWDNSWDFPDEDQKNFDLCFDNKILPQIKEIMSNYGDIATAWFDVPMTLSEAQSQTIYDTVRELQPNCLINSRLGNGKYDFVSLGDNEIPKNKEDMNKTDVDYNEITGFKPSPLGLYETAGTINDSWGFSYHDQNWKTPRTLYRYKQHLNDFGINYLLNVGLDPLGRVPMMAEENLLAAKALEDEANRL
Turning to B5, in series [4], the “hydrolysis of α-fucosyl fluoride” value is given as “could quickly hydrolyze the donor substrate”. Besides, the “hydrolytic (defucosylation) activity” value with rituximab (intact rituximab, before Endo-S treatment, listed as wild type AlfC α-fucosidase) is given as “almost no activity”; in the series with rituximab (intact rituximab, before Endo-S treatment, listed as wild-type AlfC α-fucosidase), “unable to remove the fucose moiety”; with rituximab (rituximab after Endo-S deglycosylation), “good hydrolytic activity”.
